Laboratory results as given in patent US20140037624A1 (Genentech, published 2014).

T1: human FGFR4 (recombinant, construct not stated; SPR, FGFR4 ELISA, receptor-binding assay) (human, UniProt P22455 22-369, limits assumed)
T1 construct: Whole exemplary entry named
T1 sequence: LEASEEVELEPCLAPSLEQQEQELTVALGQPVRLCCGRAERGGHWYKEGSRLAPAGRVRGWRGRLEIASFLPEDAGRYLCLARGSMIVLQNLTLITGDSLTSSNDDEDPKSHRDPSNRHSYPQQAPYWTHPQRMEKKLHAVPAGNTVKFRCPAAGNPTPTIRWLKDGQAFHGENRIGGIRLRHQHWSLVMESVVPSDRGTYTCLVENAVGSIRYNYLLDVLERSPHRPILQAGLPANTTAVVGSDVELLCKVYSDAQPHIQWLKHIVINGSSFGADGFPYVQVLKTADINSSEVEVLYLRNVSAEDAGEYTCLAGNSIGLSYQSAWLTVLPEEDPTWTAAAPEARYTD


Tests used:
[1] = target: human FGFR4-FGFR1 chimeric construct on BaF3 cells (human, UniProt P11362 398-820, limits assumed); test: cell-based or functional assay
[2] = target: T2, mouse complement C3 (ca. 37 kDa fragment, C3d, from mouse plasma) (mouse, UniProt P01027 1002-1303, limits assumed); test: immunoprecipitation from NCR nude mouse plasma, SDS-PAGE
T2 construct: Native protein of plasma/serum, pulled down as a ca. 37 kDa band; also called mouse C3; mouse C3d

[3] = target: T3, cynomolgus FGFR4-Fc chimeric protein (cynomolgus monkey); test: solid phase binding assay, LD1 on immobilized cFGFR4-Fc, OD 450 nm
T3 construct: also called cFGFR4

[4] = target: T4, cynomolgus monkey FGFR4 (SPR of FIG. 2B, construct not stated) (cynomolgus monkey); test: surface plasmon resonance (table row 'Cynomolgus', column 'Kd (nM)')
T4 construct: also called cynomolgus FGFR4

[5] = target: T1, human FGFR4 (recombinant, construct not …); test: surface plasmon resonance, compared with chLD1
Protocol: (§1) Affinity determinations were performed by surface plasmon resonance using a BIAcore™-2000. Approximately 50 RU of hLD1.vB IgG was immobilized in 10 mM Sodium Acetate pH 4.8 on a CM5 sensor chip and serial 2-fold dilutions of the FGFR4 (0.48-1000 nM) in PBST were injected at a flow rate of 30 μl/min. Each sample was analyzed with 4-minute association and 10-minute dissociation. After each injection the chip was regenerated using 10 mM glycine pH 1.7. Binding response was corrected by subtracting the RU from a flow cell with an irrelevant IgG immobilized at similar density. A 1:1 Languir model of simultaneous fitting of kon and koff was used for kinetics analysis.
As a first step in the humanization of LD1, the variable light and heavy domains of chLD1 were aligned with the human kappa I (huKI) and human VH subgroup III (huIII) variable domain frameworks used in trastuzumab (FIG. 10). Hypervariable regions from chLD1 were grafted into these human variable frameworks to generate a direct CDR-graft (hLD1.vA)^{15, 16}. […] Substitution of mouse sequence at various vernier positions in both the variable light and heavy domains was explored as a means to improve binding and led to the identification of three important mouse vernier positions in the LC: P44F, L46I and Y49S.

[6] = target: T1, human FGFR4 (recombinant, construct not …); test: SPR (BIAcore-2000), antibody immobilized, human FGFR4 as analyte
Protocol: as §1
TABLE 3 Binding Kinetics of anti-FGFR4 antibody variants. The association and dissociation rates of human FGFR4 binding to immobilized antibody variants were measured using surface plasmon resonance.

[7] = target: T1, human FGFR4 (recombinant, construct not …); test: FGFR4 ELISA (immobilized FGFR4), O.D. 450 nm against IgG concentration

T2 sequence (P01027 1002-1303 limits assumed): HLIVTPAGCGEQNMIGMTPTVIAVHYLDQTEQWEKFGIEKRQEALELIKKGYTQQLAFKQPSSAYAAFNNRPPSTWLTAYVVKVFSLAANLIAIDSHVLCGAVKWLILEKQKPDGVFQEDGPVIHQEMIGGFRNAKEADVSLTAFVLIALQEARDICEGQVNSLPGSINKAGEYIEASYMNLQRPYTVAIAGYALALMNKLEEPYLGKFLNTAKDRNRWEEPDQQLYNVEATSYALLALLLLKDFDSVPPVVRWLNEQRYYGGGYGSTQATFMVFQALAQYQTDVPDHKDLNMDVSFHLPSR

| Binder | IC50 of inhibition of proliferation of BaF3/FGFR4/R1 cells in the presence of 5 nM FGF1 [1] [nM] | binding result [2] | EC50 (read off the curve) [3] [µg/mL] | Kd [4] [nM] | fold weaker binding against chLD1 [5] [fold] | Kd [6] [nM] | koff [6] [s⁻¹] | EC50 (read off the curve) [7] [µg/mL] |
| --- | --- | --- | --- | --- | --- | --- | --- | --- |
| chimeric LD1 (murine LD1 variable domains with human kappa and human IgG1 constant domains) (antibody, V domains shown, also called chLD1; ChLD1) VH: EVQLQQPGAVLVRPGTSVKLSCKASGYTFTNHWMNWVKQRPGQGLEWIGMIHPSDSETTLDQKFKDKATLTVDKSSSTAYMQLNRPTSEDSAVYYCTRGDISLFDYWGQGTTVTVSS VL: DIQMTQTTSSLSASLGDRVTITCRTSQDISNFLNWYQQKPDGTFKILISYTSRLHSGVPSRFSGSGSGTDYSLTISTLEQEDFATYFCQQGNALPYTFGGGTKLEIE | 17.4 | no binding | ~0.04 | 0.8 | – | – | – | – |
| hLD1.vB (humanized LD1 with light chain P44F, L46I, Y49S) (antibody, V domains shown) VH: EVQLVESGGGLVQPGGSLRLSCAASGYTFTNHWMNWVRQAPGKGLEWVGMIHPSDSETTLDQKFKDRFTISADTSKNTAYLQMNSLRAEDTAVYYCTRGDISLFDYWGQGTLVTVSS VL: DIQMTQSPSSLSASVGDRVTITCRTSQDISNFLNWYQQKPGKAFKILISYTSRLHSGVPSRFSGSGSGTDFTLTISSLQPEDFATYYCQQGNALPYTFGQGTKVEIK | – | – | – | – | ~2 | 0.97 | 0.00028 | ~4 |
| hLD1.v22 (humanized and affinity matured LD1) (antibody, V domains shown) VH: EVQLVESGGGLVQPGGSLRLSCAASGYTFTNHWMNWVRQAPGKGLEWVGMILPVDSETTLEQKFKDRFTISADTSKNTAYLQMNSLRAEDTAVYYCTRGDISLFDYWGQGTLVTVSS VL: DIQMTQSPSSLSASVGDRVTITCRTSQDISNFLNWYQQKPGKAFKILISYTSRLHSGVPSRFSGSGSGTDFTLTISSLQPEDFATYYCQQGNALPYTFGQGTKVEIKR | – | no binding | – | – | – | 0.043 | 3.9e-05 | – |
